Test results reported in US20180222987A1.
Blank lines part the entries; values can stand above or below the substance they belong to.

Experiments:
[1] = biological target: human CD123 on cells (human) (UniProt P26951); experiment: cell-based or functional assay
[2] = biological target: Macaca fascicularis CD3ε/δ-Fc fusion heterodimer (Macaca fascicularis) (UniProt Q95LI8); experiment: SPR Biacore, CODV-Fab
[3] = biological target: human CD3ε/δ-Fc fusion heterodimer (hCD3ε/δ-hFc) (human) (UniProt P04234); experiment: SPR Biacore, CODV-Fab
[4] = biological target: Macaca fascicularis CD3 (TCR complex) on cyno HSC-F cells (Macaca fascicularis) (UniProt Q95LI5); experiment: flow cytometry, cyno HSC-F
[5] = biological target: Macaca fascicularis CD3 (TCR complex) on cyno HSC-F cells (Macaca fascicularis) (UniProt Q95LI5); experiment: flow cytometry, cyno HSC-F (control row of Table 2; same value as in Table 1)
[6] = biological target: human CD3 (CD3ε of the TCR complex) on human T cells (human) (UniProt P07766); experiment: flow cytometry, Jurkat E6-1 (w/o primary ab: 7; control row of Table 2; same value as in Table 1)
[7] = biological target: human CD3 (CD3ε of the TCR complex) on human T cells (human) (UniProt P07766); experiment: flow cytometry, Jurkat E6-1 (w/o primary ab: 7)
[8] = biological target: Macaca fascicularis CD3ε/δ-Fc fusion heterodimer (Macaca fascicularis) (UniProt Q95LI8); experiment: SPR Biacore, Fab-fragment
[9] = biological target: human CD3ε/δ-Fc fusion heterodimer (hCD3ε/δ-hFc) (human) (UniProt P04234); experiment: SPR Biacore, Fab-fragment
[10] = biological target: recombinant huCD3ε/γ, Fc-tagged (PB01225) (human) (UniProt P07766); experiment: SPR, Fc-captured CD3, 100 nM
[11] = biological target: Macaca fascicularis CD3ε/δ-Fc fusion heterodimer (Macaca fascicularis) (UniProt Q95LI8); experiment: SPR, cyno against human CD3ε/δ
[12] = biological target: Macaca fascicularis CD3ε/δ-Fc fusion heterodimer (Macaca fascicularis) (UniProt Q95LI8); experiment: SPR, SP-34 used as IgG
[13] = biological target: human CD3ε/δ-Fc fusion heterodimer (hCD3ε/δ-hFc) (human) (UniProt P04234); experiment: SPR, SP-34 used as IgG

Chain of human CD3ε/δ-Fc fusion heterodimer (hCD3ε/δ-hFc) (human) (chain, as listed by the source mutant, chain 1 of 2): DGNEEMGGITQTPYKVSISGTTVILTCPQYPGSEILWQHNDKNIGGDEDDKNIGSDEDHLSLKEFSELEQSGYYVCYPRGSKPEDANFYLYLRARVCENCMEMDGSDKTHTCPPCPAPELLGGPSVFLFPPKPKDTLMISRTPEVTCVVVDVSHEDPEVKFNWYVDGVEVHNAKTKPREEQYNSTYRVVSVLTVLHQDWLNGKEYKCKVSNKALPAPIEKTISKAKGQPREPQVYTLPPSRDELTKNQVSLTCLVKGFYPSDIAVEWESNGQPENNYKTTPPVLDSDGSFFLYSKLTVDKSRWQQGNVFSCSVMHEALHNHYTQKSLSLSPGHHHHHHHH
Chain of human CD3ε/δ-Fc fusion heterodimer (hCD3ε/δ-hFc) (human) (P04234 22-105, stated change not applied, chain 2 of 2): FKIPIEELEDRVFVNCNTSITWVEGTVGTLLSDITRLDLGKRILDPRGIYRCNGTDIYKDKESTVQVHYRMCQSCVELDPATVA
Chain of Macaca fascicularis CD3ε/δ-Fc fusion heterodimer (Macaca fascicularis) (chain, as listed by the source mutant, chain 1 of 2): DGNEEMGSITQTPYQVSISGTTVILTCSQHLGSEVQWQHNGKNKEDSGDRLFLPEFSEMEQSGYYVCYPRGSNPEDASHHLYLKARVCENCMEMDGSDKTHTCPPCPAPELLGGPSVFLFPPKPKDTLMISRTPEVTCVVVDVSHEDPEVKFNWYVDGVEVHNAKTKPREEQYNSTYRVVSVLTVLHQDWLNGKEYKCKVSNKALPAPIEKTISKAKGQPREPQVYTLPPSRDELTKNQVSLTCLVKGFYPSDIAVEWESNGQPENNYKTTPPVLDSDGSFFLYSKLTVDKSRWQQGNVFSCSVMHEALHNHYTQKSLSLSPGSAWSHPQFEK
Chain of Macaca fascicularis CD3ε/δ-Fc fusion heterodimer (Macaca fascicularis) (Q95LI8 22-105, stated change not applied, chain 2 of 2): as the sequence (P04234 22-105, stated change not applied, chain 2 of 2) above, with I5V, N15K, I20V, S32T, D33N, I34N, T64A, S74N, V83L counted along it
Chain of Macaca fascicularis CD3 (TCR complex) on cyno HSC-F cells (Macaca fascicularis) (Q95LI5 22-198 limits assumed, one chain of several): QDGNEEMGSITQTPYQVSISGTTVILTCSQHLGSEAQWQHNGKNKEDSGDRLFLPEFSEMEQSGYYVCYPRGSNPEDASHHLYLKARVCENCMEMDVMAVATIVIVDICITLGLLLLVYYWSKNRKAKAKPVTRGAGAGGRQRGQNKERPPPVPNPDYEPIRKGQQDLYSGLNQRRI
Chain of human CD123 on cells (human) (P26951 19-378): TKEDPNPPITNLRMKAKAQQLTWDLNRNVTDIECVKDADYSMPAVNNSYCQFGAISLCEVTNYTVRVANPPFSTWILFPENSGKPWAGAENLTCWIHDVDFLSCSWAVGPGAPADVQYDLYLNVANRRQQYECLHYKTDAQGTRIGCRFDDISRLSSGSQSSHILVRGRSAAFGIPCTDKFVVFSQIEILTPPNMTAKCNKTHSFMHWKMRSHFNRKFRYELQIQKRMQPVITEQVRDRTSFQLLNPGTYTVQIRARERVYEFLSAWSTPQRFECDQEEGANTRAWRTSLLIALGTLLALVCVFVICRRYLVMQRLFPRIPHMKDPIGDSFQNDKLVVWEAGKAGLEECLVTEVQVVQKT

Substance: CODV-Fab 7G3 × I2C (bispecific antibody)
Activity EC50 (cytotoxic assay, THP-1 targets + primary human T cells) [1]: 0.02 µg/mL | Kd [2]: 0.4 nM | Kd [3]: 0.5 nM | koff [3]: 0.002 s⁻¹ | kon [3]: 4e+06 M⁻¹ s⁻¹

Substance: FN18 (antibody)
geometric mean of relative fluorescence intensity [4]: 1260 rfu | geometric mean of relative fluorescence intensity [5]: 1260 rfu | geometric mean of relative fluorescence intensity [6]: 7 rfu | geometric mean of relative fluorescence intensity [7]: 7 rfu

Substance: I2C Fab (monospecific anti-CD3 Fab)
Kd [8]: 0.5 nM | Kd [9]: 0.13 nM | koff [9]: 0.0013 s⁻¹ | kon [9]: 1.1e+07 M⁻¹ s⁻¹

Further lines, results first:

RU of Fab binding at 100 nM [10]: 3 RU
Substance: OKT3 (antibody)

ratio KD(cy)/KD(hu) [11]: 5 | Kd [12]: 13 nM | koff [12]: 0.0028 s⁻¹ | kon [12]: 220000 M⁻¹ s⁻¹ | Kd [13]: 2.7 nM | koff [13]: 0.003 s⁻¹ | kon [13]: 1.1e+06 M⁻¹ s⁻¹
Substance: SP-34 (antibody)
